The values below come from patent US20230220081A1 (published 2023).

Usually Kd stands for the free concentration of one partner at which half of the binding sites on the other are occupied at equilibrium, for simple one-to-one binding. The low end stands for a tighter complex, the high end for a looser complex.

For this test, the target named is 21480B. The test can be described thus: Octet.

B1: IL2Rbeta (receptor)
chain: AVNGTSQFTCFYNSRANISCVWSQDGALQDTSCQVHAWPDRRRWNQTCELLPVSQASWACNLILGAPDSQKLTTVDIVTLRVLCREGVRWRVMAIQDFKPFENLRLMAPISLQVVHVETHRCNISWEISQASHYFERHLEFEARTLSPGHTWEEAPLLTLKQKQEWICLETLTPDTQYEFQVRVKPLQGEFTTWSPWSQPLAFRTKPAALGKD
B1 returned a Kd of 8.1 nM.
